Here are results for 116 sequences from the supplement of paper PMC10724198.

± gives the standard deviation of the averaged measurements.
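Further: PSI is a weighted mean of sequencing reads over stability bins, variants kept only with over 10 reads, mCherry proximal and sfGFP distal, peptide attached via GGGS linker.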

The test system of the series is Saccharomyces cerevisiae. As to the kind of experiment: protein stability index of tFT-peptide fusion (C-terminal peptide) (PSI (0-1 scale)); higher = more stable (slower turnover). Particulars: genetic background: wild type; temperature: 30 C.
Consider LNVVLTRTSVRY, for which the protein stability index stood at 0.657 ± 0.041. With LNYRVLTKVDER the figure was 0.717 ± 0.048; with LPAILALVPRYP, 0.674 ± 0.022; with LPAISSPIPPSL, 0.701 ± 0.048. With LPAPLGPRIPSL the figure was 0.753 ± 0.15. Under LPARFLIDFTRV stands 0.688 ± 0.029. Sequence LPATCFSPPSSS came in with a protein stability index of 0.687 ± 0.057. Under LPFLFTSFAPAA stands 0.776 ± 0.081. Under LPGEHSEFNYLL stands 0.7198 ± 0.0036. Under LPGGECSLKGQQ stands 0.701 ± 0.079; under LPGTTFTPPVAS, 0.662 ± 0.008; under LPHCPLNVFPLV, 0.654 ± 0.034. LPHLFLSVPSSP registered a protein stability index of 0.665 ± 0.038. Under LPLDSPSRPLPP stands 0.722 ± 0.011; under LPLFTIVPPFFF, 0.59 ± 0.011; under LPLPGSFTLNYP, 0.733 ± 0.013. Under LPLPLLLFPPPH stands 0.677 ± 0.041; under LPLRPPPSLLSR, 0.689 ± 0.064; under LPMGTRGPAPGP, 0.73 ± 0.12. LPNLTIPSRAIA yielded a protein stability index of 0.623 ± 0.0054. The sequence LPPCLEYLRVLR returned a protein stability index of 0.658 ± 0.07. With LPPFSSPLSSLR the figure was 0.693 ± 0.016.

LPPHRPPAPDLS came in with a protein stability index of 0.674 ± 0.049.

With LPPLLPSLSHAR, the protein stability index is 0.6459 ± 0.003. Under LPPLPHLLSLYL stands 0.658 ± 0.076; under LPPPLPPPPPPV, 0.651 ± 0.017.

As to LPPPLVPPLPSP, the protein stability index worked out at 0.7017 ± 0.0023. LPPPPLLIPLPT had a protein stability index of 0.605 ± 0.062. With LPPPPPASPPSP the figure was 0.703 ± 0.01.

For the sequence LPPPPPILHLPS, the protein stability index turned out to be 0.6463 ± 0.005. Sequence LPPPPPPPPPPP yielded a protein stability index of 0.60887 ± 2.4e-05. Under LPPPPPPSHPPP stands 0.697 ± 0.018; under LPPPPSAPHPSP, 0.668 ± 0.023; under LPPPPYPEFYPC, 0.772 ± 0.0089. With LPPPRPLPRPCP the figure was 0.748 ± 0.096; with LPPPRSLPPILS, 0.656 ± 0.017; with LPPRPSPPRRPP, 0.666 ± 0.016. Regarding LPPSPPPPPRQS, the protein stability index worked out at 0.739 ± 0.013. LPPSPPTPPQYT came in with a protein stability index of 0.6977 ± 0.003. With LPPSSPLPPPPP the figure was 0.77 ± 0.047; with LPRAGLVLSPLH, 0.661 ± 0.051; with LPRERSFRLYKA, 0.739 ± 0.016. As for LPRPHARPPLSS, the protein stability index is 0.583 ± 0.066. With LPRPPPLAGPPL the figure was 0.734 ± 0.013; with LPRPPPPPPPSP, 0.827 ± 0.098; with LPRPTRLRTTPA, 0.685 ± 0.044. In turn, LPRSSRFPSPSR had a protein stability index of 0.765 ± 0.012. In the case of LPRVPCRLAPPP, the protein stability index turned out to be 0.689 ± 0.055. Under LPSLASPRLIPS stands 0.609 ± 0.0066.

In the case of LPSLPPPPSPSS, the protein stability index is 0.641 ± 0.029. With LPSLTPPPLLLS the figure was 0.582 ± 0.0083. In turn, LPSPLGSSIFSN had a protein stability index of 0.693 ± 0.015. LPSSVLTAAPSA had a protein stability index of 0.661 ± 0.076. With LPSTHVPPEPLG, the protein stability index came out at 0.679 ± 0.077. With LPTATSFNALNS, the protein stability index turned out to be 0.714 ± 0.072. For the sequence LPTHYHQSHTEP, the protein stability index worked out at 0.681 ± 0.052.

The sequence LPTPRRHFRPPP registered a protein stability index of 0.657 ± 0.028. LPTVVTAVHQGL returned a protein stability index of 0.671 ± 0.014. With LPVPLPYFVSYF the figure was 0.607 ± 0.009; with LPVPPPPVSVAN, 0.554 ± 0.0089.

In turn, LPVSPDTLSPPL returned a protein stability index of 0.678 ± 0.022. Under LPWGGVVVGSMV stands 0.73 ± 0.019; under LQCGDWVETTGS, 0.709 ± 0.031. In turn, LQHSLNRKEIET came in with a protein stability index of 0.688 ± 0.014. With LQLFLWRVVAPV the figure was 0.477 ± 0.038; with LQLLPPGLRQLP, 0.679 ± 0.0079. On to LQTLSTLLPSLL, for which the protein stability index turned out to be 0.689 ± 0.023. In turn, LRANSCCPLFGS returned a protein stability index of 0.739 ± 0.0036. Consider LRARTPPPSHLP, for which the protein stability index amounted to 0.693 ± 0.02. With LRCWVGGALCGG the figure was 0.685 ± 0.033; with LREKFFWTRIRR, 0.724 ± 0.05. With LRFLPHIPSGLS, the protein stability index worked out at 0.716 ± 0.019. LRFRPLSGRAFF showed a protein stability index of 0.664 ± 0.051. Under LRFSFFSSLFVL stands 0.516 ± 0.019; under LRGAGAGPEDVG, 0.6847 ± 0.0026. LRGGGGAGVFFG: the protein stability index amounted to 0.6491 ± 0.0025. Under LRHGLASYDHCG stands 0.681 ± 0.02. With LRHHARSYLPRL the figure was 0.805 ± 0.18; with LRLFCVLARSVV, 0.528 ± 0.018. In the case of LRLHPSPPVPSR, the protein stability index is 0.7003 ± 0.0047. Sequence LRPLSFPTHTLL returned a protein stability index of 0.685 ± 0.021. Under LRPPFFLSPLPS stands 0.728 ± 0.034. Under LRPPLASLRFSP stands 0.78 ± 0.11.

Turning to LRQQTRGTIIEC, the protein stability index came to 0.703 ± 0.029. On to LRRAFPSSTPLK, for which the protein stability index amounted to 0.698 ± 0.088. The sequence LRSGFVVTLSLS had a protein stability index of 0.621 ± 0.037. With LRSLNIVGTTAL the figure was 0.66 ± 0.043; with LRSLVRSRPAPP, 0.6744 ± 0.0042.

The sequence LRSVISLSSLFS had a protein stability index of 0.686 ± 0.011. Under LRTKRGKREEYD stands 0.73 ± 0.015; under LRVFPVFSWFDR, 0.678 ± 0.15; under LRYSPLLFLSVV, 0.513 ± 0.013.

Take LSALPSRPCSKR: the protein stability index amounted to 0.6893 ± 0.005. Under LSAVISHLGNSK stands 0.65058 ± 0.0002. Sequence LSCTTSSRPSPP returned a protein stability index of 0.699 ± 0.063. Under LSDDRTLFWISG stands 0.728 ± 0.13; under LSDFSLPTFLLL, 0.72 ± 0.065. Under LSFFLSSALLHP stands 0.7 ± 0.028; under LSFPSPSLCRPL, 0.694 ± 0.1; under LSFSDPLSLPRH, 0.675 ± 0.079.

For LSFTFSQLLSFP, the protein stability index is 0.681 ± 0.16. With LSGPLILHLTSL the figure was 0.693 ± 0.057; with LSGRGVGSEGME, 0.721 ± 0.14. The sequence LSGTLALVVFTR had a protein stability index of 0.6464 ± 0.001. Turning to LSGYIFFSFRSF, the protein stability index worked out at 0.505 ± 0.01. With LSKTRRPKSADM, the protein stability index was determined as 0.7 ± 0.025. In turn, LSLGVYMGVGRG returned a protein stability index of 0.629 ± 0.0074. In turn, LSLICSLVHSIM showed a protein stability index of 0.635 ± 0.016.

LSLPRCPKGVAH returned a protein stability index of 0.672 ± 0.055. With LSLSNILDYFYC the figure was 0.685 ± 0.044; with LSLSTTLSADLY, 0.678 ± 0.021; with LSLVDCIGFFFC, 0.603 ± 0.043. LSLYGLLLPTFE: the protein stability index was 0.714 ± 0.037. With LSPALPPPMSAA the figure was 0.577 ± 0.026. Under LSPCPPLRPLLS stands 0.676 ± 0.081; under LSPFPSCLPPSV, 0.702 ± 0.045.
